The assay deals with T1, Chp2 chromodomain (recombinant Chp2-CD, wild type) (S. pombe).
T1 sequence (O42934 whole entry, looked up): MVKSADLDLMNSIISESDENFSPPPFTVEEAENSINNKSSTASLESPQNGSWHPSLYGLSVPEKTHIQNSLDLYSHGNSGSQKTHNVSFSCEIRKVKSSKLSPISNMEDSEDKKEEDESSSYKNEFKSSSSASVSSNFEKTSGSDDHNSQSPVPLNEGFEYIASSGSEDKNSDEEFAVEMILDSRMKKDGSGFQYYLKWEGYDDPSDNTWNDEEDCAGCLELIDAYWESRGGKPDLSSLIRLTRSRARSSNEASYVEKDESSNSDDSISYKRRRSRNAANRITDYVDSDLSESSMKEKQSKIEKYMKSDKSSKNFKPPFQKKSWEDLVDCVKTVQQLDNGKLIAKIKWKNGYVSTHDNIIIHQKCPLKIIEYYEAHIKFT
Put plainly: ITC; MicroCal VP-ITC, 20°C; Chp2-CD protein in 20 mM KPO4 pH 6.8, 100 mM NaCl; H3K9me3 peptide injected into the protein in 1-μl aliquots at 3-min intervals. (In ITC the heat of successive injections is recorded.)

B1: K9-trimethylated histone H3 (H3K9me3) peptide (1–18) (peptide)
peptide: ARTKQTARKSTGGKAPRY
modifications: trimethyl-lysine at position 9 (Lys[Me]3)
For the molecule B1, the Kd (commonly the constant that tells how readily two partners part at equilibrium) is 4.37 µM.

Source of the values: paper PMC6093649.
